From the supplement of paper PMC12042874 come the findings set out here.

± gives the uncertainty stated by the source.

The nature of the series: amyloid nucleation score (Sup35N fusion, yeast selection) (log enrichment); library NNK2; higher = more nucleation; inactive = no reads after selection. Summed up:
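Random libraries were run with three technical output replicates. In each, psi-negative yeast expressing Sup35N fused to peptides of 20 random codons were induced 24 hours with 100 μM copper sulfate and grown 7 days at 30°C on medium lacking adenine and uracil, and input and output plasmid inserts were Illumina-sequenced. The nucleation score is the DiMSum log enrichment of output over input reads, centred on the mode score of non-aggregating sequences, and sequences under 100 input reads were excluded.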
Regarding FSCMLNSNFH, the amyloid nucleation score result is “inactive”.
As for FSDNKLFA, the amyloid nucleation score was found to be 0.715 ± 0.81.
With FSFKPRTRSAGG the figure was -0.11 ± 0.5.
Substance FSFTYQRFSDITCQSTLGLV registered an amyloid nucleation score of -0.705 ± 0.26.
With FSGDGCRDSA, the amyloid nucleation score was 0.307 ± 0.56.
Under FSGTF stands -1.07 ± 0.76.
Regarding FSLCSLAEVAKKVTTLRRDG, the amyloid nucleation score is -0.277 ± 1.1.
For the substance FSLQQVNFMTVSRGKCSLKL, the amyloid nucleation score entry is “inactive”.
FSLSCM: the amyloid nucleation score entry was “inactive”.
FSLSQ yielded an amyloid nucleation score of 3.55 ± 0.11.
As for FSMDHDDRSSCKAWHRSEFE, the amyloid nucleation score was found to be 1 ± 0.2.
In the case of FSNSTIFDVHAQVLGDFERP, the amyloid nucleation score was -0.254 ± 1.
FSNVLRFSIA returned an amyloid nucleation score of -1.27 ± 0.45.
For FSPKKFK, the amyloid nucleation score was -0.532 ± 1.
The substance FSPTGSITWNCIRYYLVTRS came in with an amyloid nucleation score of -0.279 ± 0.33.
As for FSQYCMALLIVNQEFWACCW, the amyloid nucleation score was -0.944 ± 0.45.
The substance FSSCSDRLGHGLNSLTKHLI registered an amyloid nucleation score of -0.737 ± 0.39.
On to FSSEIRTLGQELVFGVISKA, for which the amyloid nucleation score was -0.307 ± 0.76.
On to FSTWSTLDSVACW, for which the amyloid nucleation score result is “inactive”.
Under FSWFFSNITITMNHCLGVSR stands “inactive”; under FSYRYIEDWCTNVGDLDVKL, -0.073 ± 0.26.
As to FTFLRRLMFTGFRLAIQNPS, the amyloid nucleation score result was “inactive”.
On to FTFVWNVVQFGTFYGSHLRG, for which the amyloid nucleation score amounted to 4.5 ± 0.071.
FTFYR displayed an amyloid nucleation score of 1.08 ± 0.41.
Substance FTSASQFNNTGFCLI registered an amyloid nucleation score of -0.23 ± 0.79.
Turning to FTSVRMCCILTLGISGSVRA, the amyloid nucleation score result was “inactive”.
For FTWHLLYTNDCPLVIYMMEL, the amyloid nucleation score is -0.403 ± 0.74.
Under FVCFPRSVAQRDDSSGVGGN stands -0.121 ± 1.1; under FVCMIILS, 4.89 ± 0.064; under FVDVVPGKSGASET, -0.126 ± 0.49.
Regarding FVFRWNSVPIRLRVEQGCVF, the amyloid nucleation score was found to be 0.532 ± 0.47.
FVGCYNSRK gave an amyloid nucleation score of 2.4 ± 0.08.
In turn, FVIFVMNHLWFFWIVWEDRE registered an amyloid nucleation score of -1.26 ± 1.1.
For the substance FVLLFVYYFILFRLCRIQKV, the amyloid nucleation score result is “inactive”.
Under FVLRCDPVMA stands -0.053 ± 1; under FVNYSRGRFQVGLVMFRVRP, 0.427 ± 0.74; under FVRQNVSFTLGKYYQWVVGM, -0.933 ± 0.24.
FVSFSVGWTLCADMNLRMCF registered an amyloid nucleation score of 1.24 ± 0.22.
With FVSRIGIFLS, the amyloid nucleation score is -1.28 ± 0.78.
Under FVSRRIVAIPLWLLVSEITS stands -0.201 ± 0.38.
As to FVTFFLSSHWVIVLDAYSLN, the amyloid nucleation score is -0.61 ± 1.1.
In the case of FVVQCY, the amyloid nucleation score was 0.998 ± 0.52.
In turn, FVVWWFLKEMRDSAGKGDEF returned an amyloid nucleation score of -0.49 ± 0.34.
As to FVYVVEGVWEKGIKFFMIFK, the amyloid nucleation score is -0.913 ± 1.1.
With FWDAWSDDRRERWRPCPPRT the figure was 1.45 ± 0.38; with FWDSIKIHSKSLLSCIDGPW, 2.35 ± 0.066; with FWKSWHTPRALAKNSPSAFL, -0.779 ± 0.64.
Consider FWLAWLAVRTNHFLAKITD, for which the amyloid nucleation score is -0.267 ± 0.28.
With FWPSQNYRHFLTHRGRRRRS the figure was 0.552 ± 0.66.
Under FWPYRPCKLYVIYLR stands “inactive”; under FWSCVLSFVYN, 6.1 ± 0.067; under FWSGVTFSVLSYMSVSNMVP, -0.979 ± 0.55.
As for FWSSARKDLSATKKGVGFVG, the amyloid nucleation score was 5.52 ± 0.06.
Regarding FWVKKLYLGIGSHVWNMGFN, the amyloid nucleation score result was “inactive”.
Substance FWYRAYDLIPVLTAGWRYLF showed an amyloid nucleation score of 0.001 ± 0.76.
Take FYAVHLCLTYALGCRLVTSC: the amyloid nucleation score was -0.932 ± 0.76.
Under FYCIFNFDIFV stands 6.286 ± 0.052.
As to FYCMKQLLNNIRWLGYSVCR, the amyloid nucleation score is -1.28 ± 1.1.
As for FYGAKMSIHSYC, the amyloid nucleation score entry was “inactive”.
Regarding FYGFL, the amyloid nucleation score result was “inactive”.
Under FYGPFV stands 0.729 ± 0.23; under FYHLLLTFGKIVVVQAAWSM, 0.981 ± 0.51.
For FYINTYQVSQGFIA, the amyloid nucleation score entry was “inactive”.
Substance FYKWGVVIFDGNCIEKWDIL registered an amyloid nucleation score of -1.52 ± 0.75.
FYLISWKWVKHVGIFA registered an amyloid nucleation score of -0.618 ± 1.1.
With FYLSFRVECLGRR the figure was 4.782 ± 0.045.
Turning to FYMNPRRYRGLVIMFFSSPV, the amyloid nucleation score was -1.27 ± 1.1.
Under FYMYFPNRAYWVGLGLTPML stands -0.365 ± 0.61; under FYNNPDGDRVDVRSCCYYMW, 7.19 ± 0.073; under FYNYRNDVIFVFLAHMPANY, 2.43 ± 0.13.
On to FYQRLMSLTTMYLIQRHSL, for which the amyloid nucleation score is -0.038 ± 0.74.
Under FYRRNNSPYSFAVRCGVWFL stands “inactive”.
Regarding FYSAVYMLFIVMWFGY, the amyloid nucleation score result is “inactive”.
For the substance FYSFRLFMV, the amyloid nucleation score turned out to be 1.88 ± 0.2.
In the case of FYSTVGSSFWTARQGISLQI, the amyloid nucleation score turned out to be 1.05 ± 0.25.
FYSVNCFFFCHSIVILEKLF showed an amyloid nucleation score of 3.33 ± 0.15.
Take FYVLWQLVVYAMVMYWDTYS: the amyloid nucleation score result is “inactive”.
Under FYVYFVCEKIES stands -0.076 ± 0.79; under GALKSMLQVFQEGLLHDWSI, -0.936 ± 0.31.
On to GALNISLDTLMVSRCYFHSP, for which the amyloid nucleation score turned out to be 0.945 ± 0.31.
For the substance GALTQSVLIYRH, the amyloid nucleation score turned out to be 2.12 ± 0.13.
Under GARMSRSSGFSVQYNFSGQG stands 4.11 ± 0.093.
GASLLFALSLSYKFHQYLVD: the amyloid nucleation score is -1.44 ± 0.49.
Take GASSPGSAMLTVGILEVVVG: the amyloid nucleation score is -0.375 ± 0.31.
In the case of GATLGVADRPGKSAGLPWTD, the amyloid nucleation score is 0.998 ± 0.15.
Turning to GAYYSQ, the amyloid nucleation score was -0.316 ± 0.46.
GCDDDDAA showed an amyloid nucleation score of 1.31 ± 0.32.
With GCDEEDCCCLRFRGC, the amyloid nucleation score stood at 6.513 ± 0.031.
Substance GCFPSLWWLLPGCFACYSLR registered an amyloid nucleation score of 0.721 ± 0.8.
With GCKLPYE, the amyloid nucleation score was -1.39 ± 0.75.
Take GCRTFDPSNGAAIDGAMSFV: the amyloid nucleation score entry was “inactive”.
With GCTRE, the amyloid nucleation score amounted to 1.36 ± 0.53.
In the case of GCYTET, the amyloid nucleation score was found to be 0.729 ± 0.52.
GDAIANCIVVWYGHAMPARY gave an amyloid nucleation score of 2.06 ± 0.12.
Under GDCQE stands 1.1 ± 0.23; under GDDLPWWCISIWFFLSWLEN, “inactive”; under GDDWSADVVI, -0.718 ± 0.55.
Take GDGLEMCWVA: the amyloid nucleation score is -0.226 ± 0.37.
With GDSIDARGRVQAPQSKEGLR the figure was 1.12 ± 0.42; with GEDTFYSISCYVQMLL, 1.49 ± 0.08; with GEGGANVMCRVAGIIR, 1.17 ± 0.17.
Regarding GEQDDVPRFGYTKACEFLFA, the amyloid nucleation score result was “inactive”.
Take GETLSTDYLWQPTHA: the amyloid nucleation score came out at 0.877 ± 0.58.
The substance GEYISEGDCTCRLQRMVVIE yielded an amyloid nucleation score of -0.025 ± 0.76.
In turn, GFCKEYGEVLIIRLSDSCCD showed an amyloid nucleation score of -0.393 ± 0.56.
For the substance GFFLSNFSVFYKCIRSVVDT, the amyloid nucleation score was -1.81 ± 0.62.
With GFHLQMEEVASYFLEIRPFC the figure was 0.02 ± 0.79.
With GFICMVMDKCYYRGRNFVGV the figure was -0.106 ± 0.44.
As for GFKDCV, the amyloid nucleation score worked out at 0.263 ± 0.22.
Turning to GFKILIEFWSATGRLQ, the amyloid nucleation score came to 3.97 ± 0.078.
Substance GFPLWSAGNCFALNAGRDAG came in with an amyloid nucleation score of 0.777 ± 0.19.
With GFRTFRRGREWSLE the figure was 0.714 ± 0.34.
For GFSPSMECHVMEAHLDMRVR, the amyloid nucleation score came to 0.227 ± 0.21.
Turning to GFSVRVGVMTFDSFDWRVLF, the amyloid nucleation score was determined as 1.72 ± 0.15.
In turn, GFSVSARVMIDLPYVEVRFS registered an amyloid nucleation score of 0.07 ± 0.74.
Take GFVINFYLNGVALQRVILAF: the amyloid nucleation score result is “inactive”.
GFWITVESNNTYNRFLDISC returned an amyloid nucleation score of 2.67 ± 0.089.
As to GFWVWMWPRSHCAGGPSLDL, the amyloid nucleation score stood at 1.13 ± 0.4.
With GGCGLH the figure was 0.261 ± 0.4; with GGDVNGVSCYGGDVGLSAKG, 0.616 ± 0.25.
With GGEIESIGFRLGCLSRRSES the figure was -0.383 ± 0.49.
In turn, GGGYLCRVDYGSIDLTWLKS came in with an amyloid nucleation score of -0.559 ± 0.76.
The substance GGKFSVIGVGHLLDGEH registered an amyloid nucleation score of 1.14 ± 0.15.
In turn, GGLDLRIMR registered an amyloid nucleation score of 2.41 ± 0.081.
Take GGMYKSMRGWLTGCFVAWVV: the amyloid nucleation score turned out to be 0.369 ± 0.34.
Consider GGNCVVNSIFVDLAICYVRR, for which the amyloid nucleation score was determined as 9.818 ± 0.057.
For the substance GGNFLVCYVFDDSCHWIMMY, the amyloid nucleation score came out at 4.56 ± 0.086.
On to GGNFYGGEYDMGGGSIRHYG, for which the amyloid nucleation score result was “inactive”.
As for GGQEIAYILTSVSSLSNPMW, the amyloid nucleation score came out at 3.24 ± 0.1.
Regarding GGSGSDYLSPSGIVEGYRLG, the amyloid nucleation score is -0.663 ± 0.54.
For the substance GGSRTRSCQDRAHCSVGGM, the amyloid nucleation score was determined as 0.598 ± 0.39.
Regarding GGSSRQTHW, the amyloid nucleation score was -0.375 ± 1.1.
GGTGVAV: the amyloid nucleation score was found to be 0.183 ± 0.34.
Take GGTQLRTG: the amyloid nucleation score was -0.961 ± 1.1.
Turning to GHAIWSSIVFVGWNLRGDS, the amyloid nucleation score worked out at 0.065 ± 0.46.
Turning to GHGKPTGYYGDYENQTVLY, the amyloid nucleation score was -0.25 ± 0.61.
On to GHSGTVSTQRVCPSSSLWYR, for which the amyloid nucleation score is 0.462 ± 0.4.
With GHVAWSNDSWERESFF the figure was -0.989 ± 0.76.
Under GHVCKFHTLHWR stands -1.17 ± 0.61; under GICVFCNSYWL, 8.843 ± 0.055.
